The values below come from publication PMC5286356.

In this experiment the target is bovine heart cytochrome c oxidase (bovine) (UniProt P00396). The experiment in a line: crystal structure; co-crystallised by the batch-wise method at 277 K; 15 mM sodium phosphate pH 8.0, DM and FOM, Cyt.c/CcO molar ratio 1.2, ~5% PEG 4000; ferri-Cyt.c and oxidized CcO; crystals soaked with 50 uM Cyt.c; refined at 2.0 A.

Broadly, the stoichiometry N is the number of molecules, sites or subunits per partner or assembly. Consider “bovine heart cytochrome c oxidase (from UniProt P00396 1-514; P68530 1-227; P00429 1-86) (complex)”, for which the stoichiometry N came to 2.
